For assay [1], the target named is T1, CD155蛋白 on CHO-K1-CD155 cells (Homo sapiens (Human), UniProt P15151 21-417).
T1 construct: also called CHO-K1-CD155细胞
T1 sequence: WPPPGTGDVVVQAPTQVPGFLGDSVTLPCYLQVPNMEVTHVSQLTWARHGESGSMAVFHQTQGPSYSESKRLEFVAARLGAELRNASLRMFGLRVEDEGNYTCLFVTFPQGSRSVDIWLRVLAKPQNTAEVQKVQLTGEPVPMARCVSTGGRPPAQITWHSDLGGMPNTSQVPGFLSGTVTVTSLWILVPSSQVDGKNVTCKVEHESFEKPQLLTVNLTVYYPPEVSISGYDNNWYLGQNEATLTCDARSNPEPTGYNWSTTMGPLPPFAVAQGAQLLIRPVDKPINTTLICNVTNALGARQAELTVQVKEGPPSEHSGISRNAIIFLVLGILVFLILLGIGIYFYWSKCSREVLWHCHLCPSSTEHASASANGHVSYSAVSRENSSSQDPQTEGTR
The experiment in a line: flow cytometry on CHO-K1-CD155 cells, Alexa-647 anti-human Fc secondary antibody. (In general: Flow cytometry measures light scatter and fluorescence of single cells or particles in a stream.)

For assay [2], the target named is T2, CD155 on tumour cells (NCI-H1299, NCI-H358, HepG2) (UniProt P15151 21-417, limits assumed).
T2 construct: whole, on cells; also called 表达CD155的肺癌NCI-H1299细胞; NCI-H358细胞
T2 sequence (looked up): T1 sequence
The experiment in a line: flow cytometry on NCI-H1299 lung cancer cells, Alexa-647 anti-human Fc secondary antibody.

B1: 双特异抗体 CD3×TIGIT extra (重组双特异抗体, 实施例1) (bispecific antibody, IgG1)
chain 1: EVQLLESGGGLVQPGGSLKLSCAASGFTFNTYAMNWVRQAPGKGLEWVARIRSKYNNYATYYADSVKDRFTISRDDSKNTAYLQMNNLKTEDTAVYYCVRHGNFGNSYVSWFAYWGQGTLVTVSSGGGGSGGGGSGGGGSELVVTQEPSLTVSPGGTVTLTCRSSTGAVTTSNYANWVQQKPGQAPRGLIGGTNKRAPGTPARFSGSLLGGKAALTLSGVQPEDEAEYYCALWYSNLWVFGGGTKLTVLGGGGSPKSCDKTHTCPPCPAPEAAGGPSVFLFPPKPKDTLMISRTPEVTCVVVDVSHEDPEVKFNWYVDGVEVHNAKTKPREEQYNSTYRVVSVLTVLHQDWLNGKEYKCKVSNKALPAPIEKTISKAKGQPREPQVYTLPPSREEMTKNQVSLWCLVKGFYPSDIAVEWESNGQPENNYKTTPPVLDSDGSFFLYSKLTVDKSRWQQGNVFSCSVMHEALHNHYTQKSLSLSPGK
chain 2: MMTGTIETTGNISAEKGGSIILQCHLSSTTAQVTQVNWEQQDQLLAICNADLGWHISPSFKDRVAPGPGLGLTLQSLTVNDTGEYFCIYHTYPDGTYTGRIFLEVLESSVAEHGARFQIPGGGGSPKSCDKTHTCPPCPAPEAAGGPSVFLFPPKPKDTLMISRTPEVTCVVVDVSHEDPEVKFNWYVDGVEVHNAKTKPREEQYNSTYRVVSVLTVLHQDWLNGKEYKCKVSNKALPAPIEKTISKAKGQPREPQVYTLPPSREEMTKNQVSLSCAVKGFYPSDIAVEWESNGQPENNYKTTPPVLDSDGSFFLVSKLTVDKSRWQQGNVFSCSVMHEALHNHYTQKSLSLSPGK
notes: Two-chain heterodimer joined through knob-into-hole IgG1 Fc regions; also called 双特异性抗体; 重组抗体
B1: the binding result in assay [1] and in assay [2] was “binds” each time.

Values taken from patent publication CN115490771A (HEFEI TIANGANG IMMUNOLOGY PHARMACEUTICAL CO LTD, dated 2022).
